The text below walks through data of patent US9169496B2, “Method for the enzymatic production of butadiene” (Scientist of Fortune, S.A., priority 2011, dated 2015).

Usually Km stands for the substrate concentration at which the rate is half of its maximum. By kcat is commonly meant the maximal rate divided by the concentration of active sites.

Substrate in series [1]: C/C=C/C(=O)SCCNC(=O)CCNC(=O)[C@H](O)C(C)(C)COP(=O)(O)OP(=O)(O)OC[C@H]1O[C@@H](n2cnc3c(N)ncnc32)[C@H](O)[C@@H]1OP(=O)(O)O
Nature of the series: Kinetic parameters towards crotonyl-CoA, overall reaction (crotyl alcohol quantification by HPLC). Format: biochemical, Hahella chejuensis. The conditions noted are these: other: NADPH fixed at 80 mM, crotonyl-CoA 0 to 32 mM, pH 7.5, 37° C.

Substrate in series [2]: NC(=O)C1=CN([C@@H]2O[C@H](COP(=O)(O)OP(=O)(O)OC[C@H]3O[C@@H](n4cnc5c(N)ncnc54)[C@H](OP(=O)(O)O)[C@@H]3O)[C@@H](O)[C@H]2O)C=CC1
The experiment in a line: purified protein, by the assay type. The conditions noted are these: other: crotonyl-CoA fixed at 5 mM, NADPH 0 to 0.8 mM, pH 7.5, 37° C.

Substrate in series [3]: C/C=C/COP(=O)(O)O
The experiment in a line: Kinetic parameters of enzyme catalyzed production of 1,3-butadiene from trans crotyl monophosphate (GC/FID). Format: biochemical, Eucalyptus globulus. The conditions noted are these: other: 0-25 mM trans crotyl monophosphate, pH 7.5, 37° C., 20 mM MgCl2, 20 mM KCl, 0.5-4 h. The protocol:
(§1) One ml of the gaseous phase was then collected and directly injected into a Varian GC-430 gas chromatograph equipped with a flame ionization detector (FID). Nitrogen was used as carrier gas with a flow rate of 1.5 ml/min. Volatile compounds were chromatographically separated on RT-Alumina Bond/Na2SO4 column (Restek) using an isothermal mode at 130° C. The enzymatic reaction product was identified by direct comparison with 1,3-butadiene standard (Sigma).
The kinetic parameters of enzyme catalyzed production of 1,3-butadiene from trans crotyl monophosphate were measured under the following conditions: • 50 mM Tris-HCl pH 7.5 • 20 mM MgCl2 • 20 mM KCl • 2 mM DTT • 0-25 mM trans crotyl monophosphate
(§2) The reaction was initiated by addition of 0.25 mg of purified monoterpene synthase from Eucalyptus globulus to 0.5 ml of reaction mixture. An enzyme-free control reaction was carried out in parallel. Assays were incubated at 37° C. for 0.5-4 h in a sealed vial of 1.5 ml (Interchim) with shaking.
(§3) 1,3-butadiene production was analyzed using the GC/FID procedure described in Example 12.

Substrate in series [4]: C/C=C/COP(=O)(O)OP(=O)(O)O
Nature of the series: Kinetic parameters of enzyme catalyzed production of 1,3-butadiene from trans crotyl diphosphate (GC/FID). Format: biochemical, Eucalyptus globulus. The conditions noted are these: other: 0-25 mM trans crotyl diphosphate, pH 7.5, 37° C., 20 mM MgCl2, 20 mM KCl, 0.5-4 h. The protocol:
as §1
The kinetic parameters of enzyme catalyzed production of 1,3-butadiene from trans crotyl […] were measured under the following conditions: • 50 mM Tris-HCl pH 7.5 • 20 mM MgCl2 • 20 mM KCl • 2 mM DTT • 0-25 mM trans crotyl diphosphate
as §2, §3

Substrate in series [5]: C/C=C/COP(=O)(O)O
Nature of the series: Kinetic parameters of the crotyl monophosphate phosphorylation reaction (pyruvate kinase/lactate dehydrogenase coupled spectrophotometric assay). Format: biochemical, Methanothermobacter thermautotrophicus. The conditions noted are these: other: trans crotyl monophosphate as a substrate; assay of Example 2; pH 7.5; 37.0 °C. The protocol:
(§4) The release of ADP that is associated with crotyl alcohol phosphorylation was quantified using the pyruvate kinase/lactate dehydrogenase coupled assay (FIG. 5). The purified 4-methyl-5-(2-hydroxyethyl)thiazole kinases from Escherichia coli (SEQ ID NO:2), Bacillus subtilis (SEQ ID NO:1), Rhizobium leguminosarum (SEQ ID NO:3) were evaluated for their ability to phosphorylate crotyl alcohol releasing ADP. The studied enzymatic reaction was carried out under the following conditions at 37° C.: • 50 mM Tris-HCl pH 7.5 • 10 mM MgCl2 • 100 mM KCl • 5 mM ATP • 0.4 mM NADH • 1 mM Phosphoenolpyruvate • 3 U/ml Lactate dehydrogenase • 1.5 U/ml Pyruvate kinase • 50 mM crotyl alcohol, mixture cis and trans • The pH was adjusted to 7.5
(§5) Each assay was started by addition of a particular enzyme at a concentration 0.05 mg/ml and the disappearance of NADH was monitored by following the absorbance at 340 nm.
(§6) Sequences of isopentenyl monophosphate kinases inferred from the genomes of several members of the Archaea, in particular Methanothermobacter (SEQ ID NO:5), Methanocaldococcus (SEQ ID NO:6) and Thermoplasma (SEQ ID NO:4) genus, are generated by oligonucleotide concatenation to fit the codon usage of E. coli. […] The genes thus synthesized are cloned in a pET25b expression vector and the proteins are produced according to the protocol described in Example 1. The enzymes are then assayed using the method described in Example 2 with crotyl monophosphate concentrations varying from 0 to 50 mM. The release of ADP that is associated with crotyl monophosphate phosphorylation is quantified using the pyruvate kinase/lactate dehydrogenase coupled assay. Each assay is started by addition of particular enzyme (at a final concentration from 0.05 mg/ml to 1 mg/ml) and the disappearance of NADH is monitored by following the absorbance at 340 nm.
(§7) Cis crotyl monophosphate and trans crotyl monophosphate were synthesized upon request by a company specialized in custom synthesis (Syntheval, France). Kinetic parameters for the phosphorylation of these substrates were determined using the spectrophotometric assay described in Example 2. Kinetic parameters obtained with purified isopentenyl monophosphate kinases from different members of the Archaea kingdom are presented in Table 3 (cis crotyl monophosphate as a substrate) and Table 4 (trans crotyl monophosphate as a substrate).

Substrate in series [6]: C/C=C\COP(=O)(O)O
The description is as above. Format: biochemical, Methanothermobacter thermautotrophicus. The conditions noted are these: other: cis crotyl monophosphate as a substrate; assay of Example 2; pH 7.5; 37.0 °C. The protocol:
as §4, §5, §6, §7

Substrate in series [7]: C/C=C/COP(=O)(O)O
The description is as above. Format: biochemical, Thermoplasma acidophilum. The conditions noted are these: other: trans crotyl monophosphate as a substrate; assay of Example 2; pH 7.5; 37.0 °C. The protocol: as §4, §5, §6, §7

Substrate in series [8]: C/C=C\COP(=O)(O)O
Described as above. Format: biochemical, Thermoplasma acidophilum. The conditions noted are these: other: cis crotyl monophosphate as a substrate; assay of Example 2; pH 7.5; 37.0 °C. The protocol:
as §4, §5, §6, §7

Substrate in series [9]: C/C=C/CO
Nature of the series: Kinetic parameters of crotyl alcohol phosphorylation (pyruvate kinase/lactate dehydrogenase coupled spectrophotometric assay). Format: biochemical, Escherichia coli. The conditions noted are these: other: crotyl alcohol phosphorylation, pH 7.5, 37° C., 5 mM ATP. The protocol: as §4, §5
(§8) Kinetic parameters of crotyl alcohol phosphorylation were determined using the spectrophotometric assay described in Example 2.

Substrate in series [10]: C/C=C\CO
The description is as above. Format: biochemical, Escherichia coli. The conditions noted are these: other: crotyl alcohol phosphorylation, pH 7.5, 37° C., 5 mM ATP. On the procedure:
as §4, §5, §8

Substrate in series [11]: C/C=C/COP(=O)(O)O
Nature of the series: Kinetic parameters of the crotyl monophosphate phosphorylation reaction (pyruvate kinase/lactate dehydrogenase coupled spectrophotometric assay). Format: biochemical, Methanocaldococcus jannaschii. The conditions noted are these: other: trans crotyl monophosphate as a substrate; assay of Example 2; pH 7.5; 37.0 °C. The protocol:
as §4, §5, §6, §7

Substrate in series [12]: C/C=C\COP(=O)(O)O
The series is described as above. Format: biochemical, Methanocaldococcus jannaschii. The conditions noted are these: other: cis crotyl monophosphate as a substrate; assay of Example 2; pH 7.5; 37.0 °C. The protocol:
as §4, §5, §6, §7

B1: short chain alcohol dehydrogenase-like protein from Hahella chejuensis, SEQ ID NO: 17 (Hahella chejuensis KCTC 2396) (protein)
chain: MNYFVTGGTGFIGRFLVPKLLKRGGTVYLLVREASLPKLDELRERWNASDEQVVGVVGDLAQPMLGVSEKDAAMLRGKVGHFFHLAAIYDMQASAESQEQANIEGTRNAVKLADSLKAACFHHVSSIAAAGLYRGIFREDMFEEAEKLDNPYLRTKHESEKVVREECQTPWRVYRPGMVVGHSKTGEIDKIDGPYYFFKLIQKLRSALPQWMPTVGLEGGRINIVPVDFVVDAMDHIAHAEGEDGKCFHLTDPDPYKVGEILNIFAEAGHAPKMAMRIDARMFGFIPPMIRQGIARLPPVQRMKNAVLNDLGIPDEVMSFINYPTRFDNRETERLLKGTAIAVPRLQDYSPAIWDYWERHLDPDLHKDRTLRGAVEGRVCVITGATSGIGLSAARKLAEAGAKVVIAARTLEKLQEVKKELEELGGEVYEYSVDLSDLEDCDRFVANVLKDLGHVDVLVNNAGRSIRRSIQHAFDRFHDFERTMQLNYFGSLRLIMGFAPSMLERRRGHIVNISSIGVLTNAPRFSAYVASKAALDAFSRCAAAEFSDKNVTFTTINMPLVRTPMISPTKIYDSVPTLTPEEAADLVAEAIIHRPKRIATRLGVFAQVLHSMAPKFSEIIMNTGFKMFPDSSAATGGKDGEKPKVSTEQVAFAAIMRGIHW
With B1, the Km in series [1] was determined as 5000 µM; in [2], 1000 µM. The turnover number (kcat) in [1] amounted to 0.05 s⁻¹; in series [2], 6.0 s⁻¹.

B2: monoterpene synthase from Eucalyptus globulus, SEQ ID NO: 8 (Eucalyptus globulus) (protein)
chain: MALRLLFTPHLPVLSSRRANGRVRCSASTQISDPQEGRRSANYQPSVWTYNYLQSIVAGEGRQSRREVEQQKEKVQILEEEVRGALNDEKAETFTIFATVDDIQRLGLGDHFEEDISNALRRCVSKGAVFMSLQKSLHGTALGFRLLRQHGYEVSQDVFKIFLDESGSFVKTLGGDVQGVLSLYEASHLAFEEEDILHKARSFAIKHLENLNSDVDKDLQDQVKHELELPLHRRMPLLEARRSIEAYSRREYTNPQILELALTDFNVSQSTLQRDLQEMLGWWNNTGLAKRLSFARDRLIECFFWAVGIAHEPSLSICRKAVTKAFALILVLDDVYDVFGTLEELELFTEAVRRWDLNAVEDLPVYMKLCYLALYNSVNEMAYETLKEKGENVIPYLAKAWYDLCKAFLQEAKWSNSRIIPGVEEYLNNGWVSSSGSVMLIHAYFLASPSIRKEELESLEHYHDLLRLPSLIFRLTNDIASSSAELERGETTNSIRCFMQEKGISELEARECVKEEIDTAWKKMNKYMVDRSTFNQSFVRMTYNLARMAHCVYQDGDAIGSPDDLSWNRVHSLIIKPISPAA
For the protein B2, the Km in series [3] stood at 6000 µM; in series [4], 7000 µM. In series [4], the kcat turned out to be 3e-05 s⁻¹.

B3: isopentenyl monophosphate kinase from Methanothermobacter thermautotrophicus, SEQ ID NO:5 (Methanothermobacter thermautotrophicus str. Delta H) (protein)
chain: MIILKLGGSVITRKDSEEPAIDRDNLERIASEIGNASPSSLMIVHGAGSFGHPFAGEYRIGSEIENEEDLRRRRFGFALTQNWVKKLNSHVCDALLAEGIPAVSMQPSAFIRAHAGRISHADISLIRSYLEEGMVPVVYGDVVLDSDRRLKFSVISGDQLINHFSLRLMPERVILGTDVDGVYTRNPKKHPDARLLDVIGSLDDLESLDGTLNTDVTGGMVGKIRELLLLAEKGVESEIINAAVPGNIERALLGEEVRGTRITGKH
B3: the Michaelis-Menten constant (Km) in [5] was found to be 450 µM; in series [6] it was 940 µM. For the same protein, the results for the catalytic constant (kcat) in series [5] and in series [6] were 8.7 s⁻¹ and 5.7 s⁻¹, respectively.

B4: isopentenyl monophosphate kinase from Thermoplasma acidophilum, SEQ ID NO:4 (Thermoplasma acidophilum DSM 1728) (protein)
chain: MMILKIGGSVITDKSAYRTARTYAIRSIVKVLSGIEDLVCVVHGGGSFGHIKAMEFGLPGPKNPRSSIGYSIVHRDMENLDLMVIDAMIEMGMRPISVPISALRYDGRFDYTPLIRYIDAGFVPVSYGDVYIKDEHSYGIYSGDDIMADMAELLKPDVAVFLTDVDGIYSKDPKRNPDAVLLRDIDTNITFDRVQNDVTGGIGKKFESMVKMKSSVKNGVYLINGNHPERIGDIGKESFIGTVIR
Turning to B4, in [7], the Km was determined as 1000 µM and the kcat turned out to be 2.2 s⁻¹. In series [8], the Km is 610 µM and the turnover number (kcat) worked out at 1.8 s⁻¹.

B5: 4-methyl-5-(2-hydroxyethyl)thiazole kinase (hydroxyethylthiazole kinase, EC 2.7.1.50) from Escherichia coli, SEQ ID NO:2 (Escherichia coli K-12) (protein)
chain: MQVDLLGSAQSAHALHLFHQHSPLVHCMTNDVVQTFTANTLLALGASPAMVIETEEASQFAAIASALLINVGTLTQPRAQAMRAAVEQAKSSQTPWTLDPVAVGALDYRRHFCHELLSFKPAAIRGNASEIMALAGIANGGRGVDTTDAAANAIPAAQTLARETGAIVVVTGEMDYVTDGHRIIGIHGGDPLMTKVVGTGCALSAVVAACCALPGDTLENVASACHWMKQAGERAVARSEGPGSFVPHFLDALWQLTQEVQA
With B5, in series [9], the Michaelis-Menten constant (Km) worked out at 30000 µM and the turnover number (kcat) is 0.11 s⁻¹. For the same protein, in series [10], the Km was 13600 µM and the kcat came to 0.19 s⁻¹.

B6: isopentenyl monophosphate kinase from Methanocaldococcus jannaschii, SEQ ID NO:6 (Methanocaldococcus jannaschii DSM 2661) (protein)
chain: MLTILKLGGSILSDKNVPYSIKWDNLERIAMEIKNALDYYKNQNKEIKLILVHGGGAFGHPVAKKYLKIEDGKKIFINMEKGFWEIQRAMRRFNNIIIDTLQSYDIPAVSIQPSSFVVFGDKLIFDTSAIKEMLKRNLVPVIHGDIVIDDKNGYRIISGDDIVPYLANELKADLILYATDVDGVLIDNKPIKRIDKNNIYKILNYLSGSNSIDVTGGMKYKIDMIRKNKCRGFVFNGNKANNIYKALLGEVEGTEIDFSE
As for B6, in [11], the Km amounted to 490 µM and the turnover number (kcat) is 3 s⁻¹. For the same protein, in series [12], the Km came out at 200 µM and the catalytic constant (kcat) was 3.4 s⁻¹.
